Sequences and labels used below:
T1: human interleukin 13 receptor subunit alpha 2 (IL-13RA2) (human, UniProt Q14627 27-380)
T1 construct: whole, on cells; also called IL-13Rα2; CD213A2
T1 sequence (looked up): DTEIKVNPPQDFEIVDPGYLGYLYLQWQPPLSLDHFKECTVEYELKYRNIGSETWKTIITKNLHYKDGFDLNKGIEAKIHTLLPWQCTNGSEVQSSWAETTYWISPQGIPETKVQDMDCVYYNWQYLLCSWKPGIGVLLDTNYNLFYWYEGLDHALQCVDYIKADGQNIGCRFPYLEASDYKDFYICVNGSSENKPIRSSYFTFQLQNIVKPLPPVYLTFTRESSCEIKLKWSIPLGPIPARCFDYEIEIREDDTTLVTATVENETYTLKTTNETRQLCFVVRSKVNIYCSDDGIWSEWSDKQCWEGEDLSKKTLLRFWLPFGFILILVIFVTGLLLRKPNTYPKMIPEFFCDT

B1: 73A11E2 H2L2 hIgG1 (antibody, V domains shown)
VH: QVQLVQSGAEVVKPGASVKVSCKASGFTFSSYGMSWVRQAPGQGLEWVGTISGGGSYTYYPESVKGRFTITRDTSTSTAYMELRSLRSDDTAVYYCARRDLRSAMDYWGQGTLVTVSS
VL: DIVMTQSPLSLPVTLGQPASISCKASQNVDINVAWYQQRPGQSPRALIYSASYRYSGVPDRFSGSGSGTDFTLKISRVEAEDVGVFYCQQYNAYPLTFGQGTKLEIK
notes: humanized, hIgG1
B2: 73A11E2 H4L4 hIgG1 (antibody, V domains shown)
VH: QVKLVESGAEVVKPGASVKLSCKASGFTFSSYGMSWVRQAPGQRLEWVATISGGGSYTYYPESVKGRFTITRDNSTSTLYLEMRSLRSDDTAVYYCARRDLRSAMDYWGQGTLVTVSS
VL: DIVMTQSPLSLPTTLGQPVSVSCKASQNVDINVAWYQQRPGQSPRALIYSASYRYSGVPDRFSGSGSGTDFTLTISRVEAEDVAVFFCQQYNAYPLTFGGGTKLEIK
notes: humanized, hIgG1
B3: 73A11E2 H4L1 hIgG1 (antibody, V domains shown)
VH: QVKLVESGAEVVKPGASVKLSCKASGFTFSSYGMSWVRQAPGQRLEWVATISGGGSYTYYPESVKGRFTITRDNSTSTLYLEMRSLRSDDTAVYYCARRDLRSAMDYWGQGTLVTVSS
VL: DVVMTQSPLSLPVTLGQPASISCKASQNVDINVAWFQQRPGQSPRRLIYSASYRYSGVPDRFSGSGSGTDFTLKISRVEAEDVGVYYCQQYNAYPLTFGQGTKLEIK
notes: humanized, hIgG1
B4: 73A11E2 H4L3 hIgG1 (antibody, V domains shown)
VH: QVKLVESGAEVVKPGASVKLSCKASGFTFSSYGMSWVRQAPGQRLEWVATISGGGSYTYYPESVKGRFTITRDNSTSTLYLEMRSLRSDDTAVYYCARRDLRSAMDYWGQGTLVTVSS
VL: DIVMTQSPLSLPTTLGQPASISCKASQNVDINVAWYQQRPGQSPRALIYSASYRYSGVPDRFSGSGSGTDFTLTISRVEAEDVGVFYCQQYNAYPLTFGGGTKLEIK
notes: humanized, hIgG1
B5: 73A11E2 H3L2 hIgG1 (antibody, V domains shown)
VH: QVQLVQSGAEVVKPGASVKLSCKASGFTFSSYGMSWVRQAPGQGLEWVATISGGGSYTYYPESVKGRFTITRDNSTSTLYMEMRSLRSDDTAVYYCARRDLRSAMDYWGQGTLVTVSS
VL: DIVMTQSPLSLPVTLGQPASISCKASQNVDINVAWYQQRPGQSPRALIYSASYRYSGVPDRFSGSGSGTDFTLKISRVEAEDVGVFYCQQYNAYPLTFGQGTKLEIK
notes: humanized, hIgG1
B6: 73A11E2 H2L3 hIgG1 (antibody, V domains shown)
VH: QVQLVQSGAEVVKPGASVKVSCKASGFTFSSYGMSWVRQAPGQGLEWVGTISGGGSYTYYPESVKGRFTITRDTSTSTAYMELRSLRSDDTAVYYCARRDLRSAMDYWGQGTLVTVSS
VL: DIVMTQSPLSLPTTLGQPASISCKASQNVDINVAWYQQRPGQSPRALIYSASYRYSGVPDRFSGSGSGTDFTLTISRVEAEDVGVFYCQQYNAYPLTFGGGTKLEIK
notes: humanized, hIgG1
B7: 73A11E2 H1L3 hIgG1 (antibody, V domains shown)
VH: QVQLVQSGAEVKKPGASVKVSCKASGFTFSSYGMSWVRQAPGQGLEWMGTISGGGSYTYYPESVKGRVTMTTDTSTSTAYMELRSLRSDDTAVYYCARRDLRSAMDYWGQGTLVTVSS
VL: DIVMTQSPLSLPTTLGQPASISCKASQNVDINVAWYQQRPGQSPRALIYSASYRYSGVPDRFSGSGSGTDFTLTISRVEAEDVGVFYCQQYNAYPLTFGGGTKLEIK
notes: humanized, hIgG1
B8: 73A11E2 H3L4 hIgG1 (antibody, V domains shown)
VH: QVQLVQSGAEVVKPGASVKLSCKASGFTFSSYGMSWVRQAPGQGLEWVATISGGGSYTYYPESVKGRFTITRDNSTSTLYMEMRSLRSDDTAVYYCARRDLRSAMDYWGQGTLVTVSS
VL: DIVMTQSPLSLPTTLGQPVSVSCKASQNVDINVAWYQQRPGQSPRALIYSASYRYSGVPDRFSGSGSGTDFTLTISRVEAEDVAVFFCQQYNAYPLTFGGGTKLEIK
notes: humanized, hIgG1
B9: 73A11E2 H3L3 hIgG1 (antibody, V domains shown)
VH: QVQLVQSGAEVVKPGASVKLSCKASGFTFSSYGMSWVRQAPGQGLEWVATISGGGSYTYYPESVKGRFTITRDNSTSTLYMEMRSLRSDDTAVYYCARRDLRSAMDYWGQGTLVTVSS
VL: DIVMTQSPLSLPTTLGQPASISCKASQNVDINVAWYQQRPGQSPRALIYSASYRYSGVPDRFSGSGSGTDFTLTISRVEAEDVGVFYCQQYNAYPLTFGGGTKLEIK
notes: humanized, hIgG1
B10: 73A11E2 H2L1 hIgG1 (antibody, V domains shown)
VH: QVQLVQSGAEVVKPGASVKVSCKASGFTFSSYGMSWVRQAPGQGLEWVGTISGGGSYTYYPESVKGRFTITRDTSTSTAYMELRSLRSDDTAVYYCARRDLRSAMDYWGQGTLVTVSS
VL: DVVMTQSPLSLPVTLGQPASISCKASQNVDINVAWFQQRPGQSPRRLIYSASYRYSGVPDRFSGSGSGTDFTLKISRVEAEDVGVYYCQQYNAYPLTFGQGTKLEIK
notes: humanized, hIgG1
B11: 73A11E2 H4L2 hIgG1 (antibody, V domains shown)
VH: QVKLVESGAEVVKPGASVKLSCKASGFTFSSYGMSWVRQAPGQRLEWVATISGGGSYTYYPESVKGRFTITRDNSTSTLYLEMRSLRSDDTAVYYCARRDLRSAMDYWGQGTLVTVSS
VL: DIVMTQSPLSLPVTLGQPASISCKASQNVDINVAWYQQRPGQSPRALIYSASYRYSGVPDRFSGSGSGTDFTLKISRVEAEDVGVFYCQQYNAYPLTFGQGTKLEIK
notes: humanized, hIgG1
B12: 73A11E2 H3L1 hIgG1 (antibody, V domains shown)
VH: QVQLVQSGAEVVKPGASVKLSCKASGFTFSSYGMSWVRQAPGQGLEWVATISGGGSYTYYPESVKGRFTITRDNSTSTLYMEMRSLRSDDTAVYYCARRDLRSAMDYWGQGTLVTVSS
VL: DVVMTQSPLSLPVTLGQPASISCKASQNVDINVAWFQQRPGQSPRRLIYSASYRYSGVPDRFSGSGSGTDFTLKISRVEAEDVGVYYCQQYNAYPLTFGQGTKLEIK
notes: humanized, hIgG1
B13: 73A11E2 H2L4 hIgG1 (antibody, V domains shown)
VH: QVQLVQSGAEVVKPGASVKVSCKASGFTFSSYGMSWVRQAPGQGLEWVGTISGGGSYTYYPESVKGRFTITRDTSTSTAYMELRSLRSDDTAVYYCARRDLRSAMDYWGQGTLVTVSS
VL: DIVMTQSPLSLPTTLGQPVSVSCKASQNVDINVAWYQQRPGQSPRALIYSASYRYSGVPDRFSGSGSGTDFTLTISRVEAEDVAVFFCQQYNAYPLTFGGGTKLEIK
notes: humanized, hIgG1
B14: 72B4H4 H4L3 hIgG1 (antibody, V domains shown)
VH: QVQLVQSGAEVVKPGASVKLSCKASGYTFTNYWMNWVKQRPGQGLEWIGRIDAYAGETHYNQKFKDRAILTVDKSTSTAYMELRSLRSEDTAVYYCARGYGDAYGMDHWGQGTLVTVSS
VL: DIQLTQSPSSLSASVGDRVTITCRASESVDNYGISFMNWFQQKPGKAPKLLIYAASRQGSGDPARFSGSGSGTDFTLTISSLQPEDFATYFCQQSKEVPWTFGGGTKVEIK
notes: humanized, hIgG1
B15: 72B4H4 H4L4 hIgG1 (antibody, V domains shown)
VH: QVQLVQSGAEVVKPGASVKLSCKASGYTFTNYWMNWVKQRPGQGLEWIGRIDAYAGETHYNQKFKDRAILTVDKSTSTAYMELRSLRSEDTAVYYCARGYGDAYGMDHWGQGTLVTVSS
VL: DIVLTQSPSSLSASVGDRATITCRASESVDNYGISFMNWFQQKPGKPPKLLIYAASRQGSGDPARFSGSGSGTDFTLTISSLQPEDFATYFCQQSKEVPWTFGGGTKLEIK
notes: humanized, hIgG1

Experimental findings from US20250163164A1 (LANOVA MEDICINES DEVELOPMENT, published 2025) are described below.

As usually defined, the EC50 is the concentration giving half of the maximal effect. Lower therefore signals an effect from little substance.

Values joined by “and” are separate entries in the source; they are usually repeats but may differ in a detail not shown here. Equal values may be shown once.

For this assay, the target named is T1, human interleukin 13 receptor subunit …. As to the kind of experiment: FACS on A375 cells. The method, then: A375 cells that endogenously expressed IL-13RA2, were harvested from flasks. 100 μl of 1×10⁶ cells/ml of cells were incubated with primary humanized antibodies in 4-fold serial dilutions starting from 200 nM to 0.003 nM for 30 minutes on ice. After being washed with 200 μl of FACS buffer twice, cells were incubated with secondary antibody for 30 minutes on ice. Cells were washed with 200 μl of FACS buffer twice and analyzed by FACS.
On to B1, for which the midpoint of the response, the EC50, lay at 0.67 nM.

Regarding B2, the EC50 is 1.12 nM and 1.51 nM.

With B3, the EC50 is 0.943 nM and 1.2 nM.

On to B4, for which the concentration giving a half-maximal response (EC50) is 0.909 nM and 1.45 nM.

For the molecule B5, the EC50 is 2.22 nM and 1.53 nM.

As to B6, the EC50 is 0.69 nM and 0.67 nM.

B7: the EC50 is ~251 nM and ~522 nM.

Consider B8, for which the EC50 was 1.16 nM and 1.29 nM.

As to B9, the EC50 was 1.49 nM and 1.17 nM.

Regarding B10, the EC50 is 0.6 nM and 0.56 nM.

Consider B11, for which the 50% effective concentration (EC50) is 1.12 nM and 1.31 nM.

Turning to B12, the EC50 was 1.07 nM and 1.37 nM.

For the molecule B13, the 50% effective concentration (EC50) was 1.61 nM and 0.66 nM.

Take B14: the half-maximal effective concentration (EC50) came to 0.811 nM and the “Top (MFI)” value was determined as 8470 MFI.

For the molecule B15, the EC50 was found to be 1.18 nM and the “Top (MFI)” value worked out at 8180 MFI.
